Drawing on the supplement of paper PMC10567573, this text covers protein stability index for 72 sequences.

A short description of the data set: protein stability index of a GFP-peptide fusion (GPS, HEK-293T) (PSI 1-6); higher = more stable. The conditions noted are these: c terminus: a fixed tail appended.

± gives the standard deviation.
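Also: 24-mer peptide tiles fused after GFP, lentivirally expressed, FACS-sorted into six equal bins by GFP/DsRed ratio, decoded by Illumina sequencing, PSI is the read-weighted mean bin number.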

As for LTEQQEQLRGQLQDLDSRLRAGSS [RASAL3], the protein stability index runs as follows: (treatment: DMSO) 5.08 ± 0.18; (treatment: MLN4924 1 uM, 8 h) 5.19 ± 0.23.
In the same order, the values of LTEQVWKVQDALQNQSDSLLALAG [SCARA5] are 3.65 ± 0.16 and 3.82 ± 0.37.
In the same order, the values of LTKLLASKSKEEVSSLISEKTNGA [FEM1C] are 4.07 ± 0.22 and 4.38 ± 0.26.
In the same order, the values of LTNSNLPEEELDFFEILRLFFPVI [CNOT7] are 2.39 ± 0.31 and 2.47 ± 0.41.
For the sequence LTVYAWERGSMKTHFNTAQGFRTV [OAS1], the protein stability index runs as follows: (treatment: DMSO) 2.72 ± 0.57; (treatment: MLN4924 1 uM, 8 h) 2.52 ± 0.21.
Regarding LVDHVGSKTFLCIGSSVMAASLVT [SLC2A12], the protein stability index runs as follows: (treatment: DMSO) 3.06 ± 0.76; (treatment: MLN4924 1 uM, 8 h) 3.05 ± 0.57.
With LVGLATAAFGHVQRAEMLPKTSGT [CPOX], the protein stability index was 2.9 ± 0.3 (treatment: DMSO) and 2.91 ± 0.14 (treatment: MLN4924 1 uM, 8 h).
In the same order, the values of LWWDPIQRLLFSGASDNSIIMWDI [WDFY1] are 2.65 ± 0.54 and 2.69 ± 0.83.
For LYLRVELSDVQNPAISITENVLHF [HACD3], in that order: 2.82 ± 0.57 and 2.88 ± 0.64.
As for MAAVLNAERLEVSVDGLTLSPDPE [ACBD3], the protein stability index was 4.41 ± 0.17 (treatment: DMSO) and 4.59 ± 0.17 (treatment: MLN4924 1 uM, 8 h).
For MAEAAALVWIRGPGFGCKAVRCAS [SDE2], in that order: 2.45 ± 0.47 and 2.35 ± 0.53.
For the sequence MAQPLCIRALLNLHTDVGSVRMRR [NEK8], the protein stability index is, setting by setting: (treatment: DMSO) 2.48 ± 0.16; (treatment: MLN4924 1 uM, 8 h) 2.58 ± 0.099.
For MCRVDLRGHMPEWYTKSFGHLCAA [DLC1], in that order: 2.23 ± 0.43 and 2.1 ± 0.53.
The sequence MDSGTRPVGSCCSSPAGLSREYKL [RIT1] showed a protein stability index (treatment: DMSO) of 3.35 ± 0.18 and a protein stability index (treatment: MLN4924 1 uM, 8 h) of 3.3 ± 0.16.
For METSASSSQPQDNSQVHRETEDVD [TMEM40], in that order: 5.54 ± 0.25 and 5.56 ± 0.32.
With MEVGSGSRELSLRPSRSGAQQLEE [EID1], the protein stability index is 5.43 ± 0.23 (treatment: DMSO) and 5.25 ± 0.35 (treatment: MLN4924 1 uM, 8 h).
In the same order, the values of MFPGVLLPLLESCSVRPDASVSSH [TCF25] are 2.62 ± 0.38 and 2.18 ± 0.2.
MGCLGVAKEDGKADTKKRHTPRGH [SMOC2]: the protein stability index reads like this: (treatment: DMSO) 5.15 ± 0.17; (treatment: MLN4924 1 uM, 8 h) 5 ± 0.12.
In the same order, the values of MKACQEDDVRLLCHLTPSIYTEFP [INTS3] are 2.62 ± 0.28 and 2.55 ± 0.25.
Take MKAKQEALVKEREKQLAKKEQSKE [FAM50A]: the protein stability index amounted to 5.62 ± 0.24 (treatment: DMSO) and 5.55 ± 0.13 (treatment: MLN4924 1 uM, 8 h).
MKCQSYCEPPSYRPMHHEDFKEDL [CDC25A]: the protein stability index runs as follows: (treatment: DMSO) 3.77 ± 0.16; (treatment: MLN4924 1 uM, 8 h) 4.02 ± 0.23.
As for MLAIITKMTLTQVSTWFANARRRL [IRX6], the protein stability index amounted to 2.29 ± 0.49 (treatment: DMSO) and 2.26 ± 0.27 (treatment: MLN4924 1 uM, 8 h).
Regarding MLDSALRFQAMEETHLRHMKALLG [FCHO1], the protein stability index (treatment: DMSO) was 2.23 ± 0.37 and the protein stability index (treatment: MLN4924 1 uM, 8 h) came out at 2.33 ± 0.25.
As to MLESPGAPCRSAQASVSCALEALE [HDAC6], the protein stability index is, setting by setting: (treatment: DMSO) 3.35 ± 0.58; (treatment: MLN4924 1 uM, 8 h) 3.38 ± 0.4.
With MPPKFKRHLNDDDVTGSVKSERRN [VAMP4], the protein stability index runs as follows: (treatment: DMSO) 4.79 ± 0.27; (treatment: MLN4924 1 uM, 8 h) 4.84 ± 0.18.
Regarding MPSWASARDRQPSDFKTDKEGGQA [ELOA2], the protein stability index (treatment: DMSO) was determined as 5.14 ± 0.43 and the protein stability index (treatment: MLN4924 1 uM, 8 h) is 5.2 ± 0.22.
For the sequence MQCLISNVEAQLSEIRCDLERQNQ [KRT36], the protein stability index by setting is: (treatment: DMSO) 3.53 ± 0.11; (treatment: MLN4924 1 uM, 8 h) 3.32 ± 0.22.
On to MQGAYCTFPASVLAPVPTHSTVSE [DUSP5], for which the protein stability index is, setting by setting: (treatment: DMSO) 3.47 ± 0.2; (treatment: MLN4924 1 uM, 8 h) 3.61 ± 0.17.
For MQKRSKAIHSSDEDEDEDDEEDFE [WASL], in that order: 4.58 ± 0.23 and 4.69 ± 0.21.
Regarding MQSARGPTPSSPLPSVPVSVPASD [PLEKHN1], the protein stability index reads like this: (treatment: DMSO) 4.78 ± 0.28; (treatment: MLN4924 1 uM, 8 h) 4.79 ± 0.11.
In the case of MRKTSNSCIMENGHQPGTGPGDGP [SMTNL2], the protein stability index (treatment: DMSO) stood at 4.42 ± 0.064 and the protein stability index (treatment: MLN4924 1 uM, 8 h) was 4.55 ± 0.11.
In turn, MRNLKASLENSLREVEARYALQME [KRT18] showed a protein stability index (treatment: DMSO) of 3.22 ± 0.12 and a protein stability index (treatment: MLN4924 1 uM, 8 h) of 3.25 ± 0.38.
As to MRRMVATWMLEVCEEQKCEEEVFP [CCND2], the protein stability index amounted to 2.9 ± 0.46 (treatment: DMSO) and 3.14 ± 0.045 (treatment: MLN4924 1 uM, 8 h).
With MRVDLRAGDEAVFAQYDSFHVDSA [TNXB], the protein stability index is 3.34 ± 0.56 (treatment: DMSO) and 3.22 ± 0.37 (treatment: MLN4924 1 uM, 8 h).
Turning to MSDYRGFGIGSEILKNLSQVAMRC [SAT1], the protein stability index runs as follows: (treatment: DMSO) 2.11 ± 0.48; (treatment: MLN4924 1 uM, 8 h) 2.46 ± 0.56.
For the sequence MSHHPSGLRAGFSSTSYRRTFGPP [PRPH], the protein stability index turned out to be 2.92 ± 0.23 (treatment: DMSO) and 2.94 ± 0.1 (treatment: MLN4924 1 uM, 8 h).
For MSKQRERQLRRRALHPERAMDNHS [RETREG3], in that order: 4.31 ± 0.17 and 4.44 ± 0.088.
For MTTPAGSGSGFGSVSWWGLSPALD [DNAAF3], the protein stability index was 2.47 ± 0.29 (treatment: DMSO) and 2.75 ± 0.36 (treatment: MLN4924 1 uM, 8 h).
For MVFPAKRFCLVPSMEGVRWAFSCG [AASDHPPT], in that order: 2.74 ± 0.79 and 2.77 ± 0.72.
For MWLTPLHRAVASRSEEAVQVLIKH [ANKRD44], in that order: 2.29 ± 0.12 and 2.45 ± 0.18.
In the same order, the values of NAEMKSAMRKLWSKKVSLAGKWLY [OR4A15] are 3.85 ± 0.63 and 2.8 ± 0.85.
For the sequence NAGTGLVINQADVRNNRSIIKQLK [PLD5], the protein stability index by setting is: (treatment: DMSO) 3.88 ± 0.27; (treatment: MLN4924 1 uM, 8 h) 3.84 ± 0.11.
For NARGMGIRSPRPASVATWAIFVHR [CTBP1-DT], the protein stability index runs as follows: (treatment: DMSO) 2.16 ± 0.48; (treatment: MLN4924 1 uM, 8 h) 2.15 ± 0.37.
For NDSDHQSSTSPLMEGTPTIKSKKK [VPS39], in that order: 5.45 ± 0.26 and 5.57 ± 0.25.
As to NESLASLPLRVSFCPLSLWRWQLY [CLPTM1], the protein stability index by setting is: (treatment: DMSO) 2.45 ± 0.41; (treatment: MLN4924 1 uM, 8 h) 2.18 ± 0.4.
Take NEYLLNLVATNAHLDHYYQEELPA [FCHSD1]: the protein stability index runs as follows: (treatment: DMSO) 3.25 ± 0.11; (treatment: MLN4924 1 uM, 8 h) 3.27 ± 0.38.
In the same order, the values of NFLLFDMTTHPLTNNNIKQRLIKK [GOLPH3] are 2.62 ± 0.22 and 2.81 ± 0.25.
In the case of NGFPDSTGDPLPEISKDNSCKENC [EDARADD], the protein stability index reads like this: (treatment: DMSO) 5.2 ± 0.24; (treatment: MLN4924 1 uM, 8 h) 5.17 ± 0.48.
Take NHDSHMAKERAHSTASHSSSNSED [PDZK1]: the protein stability index reads like this: (treatment: DMSO) 5.59 ± 0.17; (treatment: MLN4924 1 uM, 8 h) 5.61 ± 0.23.
For NIQVTGSAALFYLTNSEYRSEQSV [ZER1], in that order: 2.63 ± 0.24 and 2.84 ± 0.19.
For NKQTLSSGEKYDPDANTWTALPPM [GAN], in that order: 4.07 ± 0.39 and 4.03 ± 0.1.
With NLESKSTIGVEFATRSIQVDGKTI [RAB11A], the protein stability index by setting is: (treatment: DMSO) 4.33 ± 0.19; (treatment: MLN4924 1 uM, 8 h) 4.27 ± 0.35.
In the same order, the values of NLFCVLRLVVEFPATGGAIPSWQI [PKD2L1] are 3.39 ± 0.28 and 3 ± 0.5.
In the case of NLINQMLTINPAKRITAHEALKHP [CAMK2B], the protein stability index runs as follows: (treatment: DMSO) 2.38 ± 0.32; (treatment: MLN4924 1 uM, 8 h) 2.23 ± 0.12.
NLMSLLMAVRPSLPESGLLSVLQI [FANCE] displayed a protein stability index (treatment: DMSO) of 3.09 ± 0.51 and a protein stability index (treatment: MLN4924 1 uM, 8 h) of 2.78 ± 0.55.
For NLNREEKIIREIDFYREDEDEEEE [TRIM55], in that order: 5.37 ± 0.15 and 5.3 ± 0.32.
For NLPNLAAAYSSILSSLGENPQRQG [GCH1], in that order: 3.03 ± 0.2 and 3.2 ± 0.43.
As for NLSRGQTPLTEGSEDLDGHSDPEE [RETREG3], the protein stability index reads like this: (treatment: DMSO) 5.65 ± 0.22; (treatment: MLN4924 1 uM, 8 h) 5.67 ± 0.15.
In the same order, the values of NPVQPIGPQTPKACDSKLTFDAIT [MMP1] are 4.21 ± 0.22 and 4.23 ± 0.22.
In the same order, the values of NQEYKMLLDIKTRLEQEIATYRSL [KRT13] are 2.58 ± 0.21 and 2.78 ± 0.19.
In the same order, the values of NQILMEKYLKLQDTCRTQLVWLVR [INTS3] are 2.02 ± 0.39 and 2.38 ± 0.31.
NQSFNIVDIKPANMEELTEVITAA [PPP2R2B]: the protein stability index (treatment: DMSO) came out at 4.18 ± 0.26 and the protein stability index (treatment: MLN4924 1 uM, 8 h) amounted to 4.26 ± 0.16.
Consider NRSDHGIFHSRTSLQKLSTKLSAQ [FCHSD1], for which the protein stability index is 3.43 ± 0.25 (treatment: DMSO) and 3.67 ± 0.36 (treatment: MLN4924 1 uM, 8 h).
In the same order, the values of NSISSDKEATVPCTEILTEKKDTI [MIA2] are 5.29 ± 0.28 and 5.06 ± 0.21.
For NVCSLLAQTPLHVAAETGHTSTAR [RIPK4], in that order: 3.67 ± 0.26 and 3.47 ± 0.27.
In the same order, the values of NVSTKEGIHLALVELLKNLTKYPT [INTS4] are 2.53 ± 0.36 and 2.5 ± 0.25.
NYFVTMFDDYSATLPLTLIVILEN [SLC6A17]: the protein stability index was determined as 3.05 ± 0.61 (treatment: DMSO) and 2.85 ± 0.62 (treatment: MLN4924 1 uM, 8 h).
As for PAAGESLSGTRESLAQGPDAATTD [TBC1D10A], the protein stability index reads like this: (treatment: DMSO) 5.36 ± 0.32; (treatment: MLN4924 1 uM, 8 h) 5.29 ± 0.13.
For PANVDASVMYRKWKESKGKDREYT [CDC34], in that order: 4.16 ± 0.33 and 4.21 ± 0.13.
For PAPGKLLGPCVVGYGIYYFIYSTW [SAT2], in that order: 2.62 ± 0.65 and 2.92 ± 0.46.
For PCHPTVKNWRNFASKWGMSYDELC [EDARADD], in that order: 2.64 ± 0.28 and 2.54 ± 0.38.
With PDLNILEDSAESRPWRAGVLAEGD [PSD2], the protein stability index turned out to be 4.87 ± 0.13 (treatment: DMSO) and 4.99 ± 0.14 (treatment: MLN4924 1 uM, 8 h).
